Source: publication PMC3366968, “Functional Characterization of a First Avian Cytochrome P450 of the CYP2D Subfamily (CYP2D49)” (PLoS ONE, 2012)

Substrate: CCc1cccc2cc(C(O)CNC(C)(C)C)oc12
Test: purified protein
Format: biochemical, Gallus gallus
Conditions: 2-200 µM bufuralol, NADPH, NADPH-P450 reductase, cytochrome b5, liposome, 10 mM MgCl2, 100 mM potassium phosphate pH 7.4, 37°C

B1: CYP2D49 (Gallus gallus) (protein)
chain: MTLLLWLSSWSNISVLGVFLTVFTILVDFMKRRKKWSRYPPGPMPLPFVGTMPYVNYYNPHLSFEKFRKKFGNIFSLQNCWTNVVVLNGYKTVKEALVNKSEDFADRPYMPVYEHLGYGHKSEGLVLARYGHLWKELRKFTLTTLRNFGMGKKSLEERVTEEAGFLCSAISSEGGHPFDPRFLVNNAVCNVICTITYGERFDYGDKTFKKLLTLFENSLNEEAGFLPQLLNVAPVLLRIPGLPQKIFPCQKAYVDFTQMLIDKHKETWNPAYIRDFTDAFLKEMAKGKEAEENGFNKSNLTLVTADLLVAGSETTATTLRWAFLFMLLYPEIQSKVHKEIDKVIGRNRPPTMADQVNMPYTNAVIHEVQRFGDVVPMGLPHMTYRDTELQGFFIPKGTTIITNLTSVLKDETAWKKPNEFYPEHFLNENGQFVRPEAFLPFSAGRRACLGEQLTRMELFIFFTTLMQKFTFVFPEDQPRPREDSHFAFTNSPHPYQLRAVPR
notes: full-length 502-residue ORF, N-terminal ompA leader (21 aa) plus Leu-Glu spacer, Myc-His-tagged fusion, about 55 kDa, expressed in E. coli DH5alpha, purified by Ni-NTA
**Q.** How did the Km turn out when B1 was run?
**A.** 3.948 ± 0.232 µM
